Assay results as given in publication PMC3864023.

Assays:
ParC R564D;ParE = ParC R564D;ParE (Escherichia coli;Escherichia coli, UniProt P0AFI2;P20083 1-752;1-630, R564D|); assay: fluorescence anisotropy
ParC WT;ParE = ParC WT;ParE (Escherichia coli;Escherichia coli, UniProt P0AFI2;P20083 1-752;1-630, |); assay: fluorescence anisotropy

B1: 45mer duplex with strong topo II site, FAM (dsDNA)
DNA 1: GCCTATCCGAGGATGACGATGCGCGCATCGTCATACAGCGAATGG
DNA 2: CCATTCGCTGTATGACGATGCGCGCATCGTCATCCTCGGATAGGC
Kd (ParC R564D;ParE): 15 3 | Kd (ParC WT;ParE): 25 5
